# Substitutions are numbered along the chain they refer to.
# B1: recombinant humanized anti-CD66c antibody Protein ID 3058 (Vk8 + VH11) (antibody, human IgG1, V domains shown)
# VH: QVQLVQSGAEVKKPGASVKISCKASGYSFTDYTMHWVKQAPGQNLEWIGLINPFGGSTSYAQKFKGRVTMTRDTSTNTAYMELSRLRSDDTAVYYCVRGDPVRHYYALAYWGQGTLVTVSS
# VL: DIQMTQSPSTLSASVGDRVTITCRASENVYGTLNWYQRKPGKAPKLLIYGATNLADGMPSRFSGSGSGTEYTLTISSLQPDDFATYYCQNVLSAPYTFGGGTKLEIK
# notes: also called hu 3058; #86
# B2: recombinant humanized anti-CD66c antibody Protein ID 3007 (Vk7 + VH6) (antibody, human IgG1, V domains shown)
# VH: QVQLVQSGAEVKKPGASMKISCKASGYSFTDYTMNWVKQAPGQNLEWIGLINPFHGGTVSNQRFKVKATLTVDVSTNTAYMELSRLRSDDTAVYYCVRGDPVRHYYALAYWGQGTLVTVSS
# VL: B1 VL with R24G, M58V
# notes: also called hu 3007; #43
# B3: recombinant humanized anti-CD66c antibody Protein ID 2938 (Vk5 + VH7) (antibody, human IgG1, V domains shown)
# VH: B2 VH with K38R, N44G
# VL: B1 VL with R24G, N34A, M58V, T69R
# notes: also called hu 2938
# B4: recombinant humanized anti-CD66c antibody Protein ID 3043 (Vk8 + VH6) (antibody, V domains shown)
# VH: B2 VH
# VL: B1 VL
# notes: also called hu 3043; #71
# B5: anti-CD66c chimeric antibody 8F5 (antibody, human IgG1, V domains shown)
# VH: EVQLQQSGPELVKPGASMKISCKASGYSFTDYTMNWVKQSHGKNLEWIGLINPFHGGTVSNQRFKVKATLTVDVSSNTAYMELLSLTSDDSAVYYCVRGDPVRHYYALAYWGQGTSVTVSS
# VL: DIQMTQSPASLSASVGETVTITCGASENVYGTLNWYQRKQGKSPQLLIYGATNLADGMSSRFSGSGSGRQYSLKISSLHPDDVATYYCQNVLSAPYTFGGGTKLEII
# notes: also called chimeric 8F5; chi 8F5
# How the values were obtained:
# [1] = biological target: T1, Antigen CD66c (CEACAM6; Sino Biological, Inc.) (UniProt P40199 35-320); test: ELISA, CEACAM6 coated 100 ng/well, antibody at 0.51 ng/ml
# T1 construct: Bought antigen, coated on the ELISA plate; construct not described; also called CECACAM6 (CD66c) antigen; CD66c antigen
# T1 sequence (looked up): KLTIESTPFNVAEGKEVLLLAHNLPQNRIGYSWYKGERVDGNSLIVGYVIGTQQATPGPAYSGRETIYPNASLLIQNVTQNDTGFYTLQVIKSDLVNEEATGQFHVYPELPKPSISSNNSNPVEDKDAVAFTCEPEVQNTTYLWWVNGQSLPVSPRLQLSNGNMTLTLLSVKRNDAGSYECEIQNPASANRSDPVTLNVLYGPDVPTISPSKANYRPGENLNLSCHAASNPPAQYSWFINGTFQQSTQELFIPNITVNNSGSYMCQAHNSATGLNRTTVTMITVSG
# Experimental: (§1) Antigen CD66c (CEACAM6; Sino Biological, Inc.) and CEACAM1 antigen (Sino Biological, Inc.) were coated on a 96-well plate at a rate of 100 ng per well and then blocked. The primary antibody was diluted 3-fold from 10 ug/ml and bound at 37° C. for 1 hour. […] goat anti-Human Ig-HRP conjugate (Jackson ImmunoResearch) as a secondary antibody was diluted 1:10,000 and incubated at 37° C. for 30 minutes. The washing was carried out at three times between each step, and the TMB reaction was performed, stopped with 1N H₂SO₄ solution at the same amount of TMB solution (100 ul) and then OD value was measured at 450 nm.
# (§2) As a result of the experiment, the binding affinities to CD66c antigen of the five kinds of recombinant humanized antibodies selected from among 96 kinds of recombinant humanized antibodies are shown in FIG. 4a, Table 12, FIG. 4b and Table 13. FIG. 4a and Table 12 show the binding capacity of the antibodies to CECACAM6 CD66c) antigen, and FIG. 4b and Table 13 are the results for the CEACAM1 (CD66a) antigen.
# [2] = biological target: T1, Antigen CD66c (CEACAM6; Sino …); test: ELISA, CEACAM6 coated 100 ng/well, antibody at 1.52 ng/ml
# Experimental: as §1, §2
# [3] = biological target: T1, Antigen CD66c (CEACAM6; Sino …); test: ELISA, CEACAM6 coated 100 ng/well, antibody at 13.72 ng/ml
# Experimental: as §1, §2
# [4] = biological target: T2, CEACAM1 antigen (Sino Biological, Inc.) (UniProt P13688 35-428); test: ELISA, CEACAM1 coated 100 ng/well, antibody at 13.72 ng/ml
# T2 construct: Bought antigen, coated on the ELISA plate; construct not described; also called CEACAM1 (CD66a) antigen; CD66a
# T2 sequence (looked up): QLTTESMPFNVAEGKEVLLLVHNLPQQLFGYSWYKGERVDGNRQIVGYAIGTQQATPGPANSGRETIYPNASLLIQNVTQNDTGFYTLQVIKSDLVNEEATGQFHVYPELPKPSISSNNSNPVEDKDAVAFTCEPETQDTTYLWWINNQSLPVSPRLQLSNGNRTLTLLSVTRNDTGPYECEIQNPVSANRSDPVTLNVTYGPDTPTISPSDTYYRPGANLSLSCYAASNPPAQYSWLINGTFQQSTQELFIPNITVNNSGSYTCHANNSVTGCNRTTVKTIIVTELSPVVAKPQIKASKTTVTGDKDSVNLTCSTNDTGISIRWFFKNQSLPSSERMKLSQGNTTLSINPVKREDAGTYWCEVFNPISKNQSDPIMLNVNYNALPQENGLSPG
# Experimental: as §1
# [5] = biological target: T2, CEACAM1 antigen (Sino Biological, Inc.); test: ELISA, CEACAM1 coated 100 ng/well, antibody at 123.46 ng/ml
# Experimental: as §1
# [6] = biological target: T2, CEACAM1 antigen (Sino Biological, Inc.); test: ELISA, CEACAM1 coated 100 ng/well, antibody at 370.37 ng/ml
# Experimental: as §1
# [7] = biological target: T2, CEACAM1 antigen (Sino Biological, Inc.); test: ELISA, CEACAM1 coated 100 ng/well, antibody at 10000.00 ng/ml
# Experimental: as §1
# [8] = biological target: T3, CD66c (Cluster of Differentiation 66c) on cells (UniProt P40199 35-320, limits assumed); test: flow cytometry on CD66c-positive A549 cells, FITC anti-human IgG
# T3 construct: whole, on cells; also called CEACAM6; CEACAM 6
# T3 sequence (looked up): T1 sequence (looked up)
# Experimental: Each expressed 96 recombinant humanized antibody was poured and reacted in a test tube containing the same amount […] of CD66c-positive A549 non-small-cell lung cancer cell line at 4° C. for 30 minutes, washed with PBS, and treated with FITC-conjugated goat anti-Huma IgG (DiNona Inc, Korea) was added and incubated at 4° C. for 15 minutes. After washing with PBS, the cells were analyzed with a flow cytometer (Stratedigm, S1000EXi) and the results are shown below.
# Among the 96 recombinant humanized antibody candidates, eight were firstly selected based on the degree of expression, the presence of aggregation, and the degree of cell binding (Table 9 and Table 10, FIGS. 3A to 3E).
binder,measurement,setting,value
B1,OD 450 nm,[1],0.38 OD 450 nm
same,OD 450 nm,[2],0.53 OD 450 nm
same,OD 450 nm,[3],1.06 OD 450 nm
same,OD 450 nm,[4],0.05 OD 450 nm
same,OD 450 nm,[5],0.07 OD 450 nm
same,OD 450 nm,[6],0.12 OD 450 nm
same,OD 450 nm,[7],0.42 OD 450 nm
same,"% (% gated × mean), against the chimeric antibody",[8],103%
same,% gated,[8],72%
same,Mean (fluorescence),[8],645
B2,OD 450 nm,[1],0.64 OD 450 nm
same,OD 450 nm,[2],0.79 OD 450 nm
same,OD 450 nm,[3],1.64 OD 450 nm
same,OD 450 nm,[4],0.46 OD 450 nm
same,OD 450 nm,[5],0.82 OD 450 nm
same,OD 450 nm,[6],0.92 OD 450 nm
same,OD 450 nm,[7],1.01 OD 450 nm
same,"% (% gated × mean), against the chimeric antibody",[8],88.8%
same,% gated,[8],71%
same,Mean (fluorescence),[8],565
B3,OD 450 nm,[1],0.36 OD 450 nm
same,OD 450 nm,[2],0.48 OD 450 nm
same,OD 450 nm,[3],1.15 OD 450 nm
same,OD 450 nm,[4],0.06 OD 450 nm
same,OD 450 nm,[5],0.1 OD 450 nm
same,OD 450 nm,[6],0.14 OD 450 nm
same,OD 450 nm,[7],0.32 OD 450 nm
same,"% (% gated × mean), against the chimeric antibody",[8],96%
same,% gated,[8],71%
same,Mean (fluorescence),[8],611
B4,OD 450 nm,[1],0.49 OD 450 nm
same,OD 450 nm,[2],0.7 OD 450 nm
same,OD 450 nm,[3],1.37 OD 450 nm
same,OD 450 nm,[4],0.43 OD 450 nm
same,OD 450 nm,[5],0.7 OD 450 nm
same,OD 450 nm,[6],0.8 OD 450 nm
same,OD 450 nm,[7],0.91 OD 450 nm
same,"% (% gated × mean), against the chimeric antibody",[8],105%
same,% gated,[8],69%
same,Mean (fluorescence),[8],686
B5,OD 450 nm,[1],0.41 OD 450 nm
same,OD 450 nm,[2],0.53 OD 450 nm
same,OD 450 nm,[3],1.15 OD 450 nm
same,OD 450 nm,[4],0.51 OD 450 nm
same,OD 450 nm,[5],0.95 OD 450 nm
same,OD 450 nm,[6],1.13 OD 450 nm
same,OD 450 nm,[7],1.21 OD 450 nm
same,"% (% gated × mean), against the chimeric antibody",[8],100%
same,% gated,[8],73%
same,Mean (fluorescence),[8],619
